Patent publication US20250326797A1, “PROTEIN-PROTEIN INTERACTION MODULATORS AND METHODS FOR DESIGN THEREOF” (RAMOT AT TEL AVIV UNIVERSITY LTD., priority 2022, published 2025)
Each block holds one molecule with its values, some of them ahead of it.

Experiments:
[1] = biological target: T1, CaN PxIxIT binding site (CaNA, catalytic subunit of calcineurin) (Homo sapiens, UniProt Q08209, L343A/M347D/Y341S); assay: Fluorescence Polarization (FP) competition assay with FITC-labeled PVIVIT peptide; conditions: for ability to compete with PVIVIT for CaN binding: result in words; for IC50: competition with 100 nM FITC-labeled PVIVIT peptide, 4 uM CaNA, single site inhibition model, read-out: IC50: half maximal inhibitory concentration
T1 construct: GST; made in house; host or cells: E. coli BL21
Experimental: (§1) Fluorescence Polarization (FP) competition assay. Fluorescence measurements were performed on samples arrayed in a 96-well plate using Biotek HybridHI reader equipped with a polarized optic system. All measurements were done in triplicate. […] Experimental polarization data from simple and competitive binding experiments were fitted using GraphPad Prism7, with error bars representing standard deviation.
Selected peptides were synthesized and their ability to specifically bind the CaN PxIxIT binding site was evaluated by FP competition assay.
(§2) Polarization levels were read and normalized values were fitted to a single site model.
The above peptides are synthesized and their ability to specifically bind the CaN PxIxIT binding site is evaluated by FP competition assay. […] After fitting the polarization values to a single site inhibition model, the corresponding IC50 values are extracted.

[2] = biological target: T2, Catalytic subunit of calcineurin (CaNA), residues 2-347 with substitutions Y341S, L343A and M347D (UniProt Q08209 2-347); assay: FP competition assay against FITC-PVIVIT (100 nM) on CaNA (4 uM); single site inhibition fit
T2 construct: range 2-347; Expressed as a cleavable GST fusion and purified on a GST column and by size exclusion; The microarray used GST-tagged CaN; also called Cn
Experimental: as §1
(§3) Selected peptides were synthesized and their ability to specifically bind the CaN PxIxIT binding site was evaluated by FP competition assay. […] After fitting the polarization values to a single site inhibition model, the corresponding IC₅₀ values were extracted and reported in Table 2.

[3] = biological target: T2, Catalytic subunit of calcineurin …; assay: FP competition assay against FITC-PVIVIT on CaNA
Experimental: as §1, §3

[4] = biological target: T2, Catalytic subunit of calcineurin …; assay: fluorescence polarization competition; unlabeled peptide titrated against 100 nM FITC-labeled PVIVIT bound to 4 uM CaNA
Experimental: as §1, §3, §2

T1 sequence (Q08209 2-347 Y341S/L343A/M347D): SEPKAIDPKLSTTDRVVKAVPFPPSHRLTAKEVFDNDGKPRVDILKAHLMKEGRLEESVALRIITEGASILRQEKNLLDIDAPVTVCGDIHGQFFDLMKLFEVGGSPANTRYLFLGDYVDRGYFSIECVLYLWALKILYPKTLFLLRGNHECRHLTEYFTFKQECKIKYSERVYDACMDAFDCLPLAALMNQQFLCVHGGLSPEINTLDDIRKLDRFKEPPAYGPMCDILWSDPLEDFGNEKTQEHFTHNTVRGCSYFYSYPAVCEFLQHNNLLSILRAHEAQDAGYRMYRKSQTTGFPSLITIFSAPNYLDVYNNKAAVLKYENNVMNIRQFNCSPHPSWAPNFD
T2 sequence (Q08209 2-347 Y341S/L343A/M347D): as above

- IC50 [1]: 14 µM
- IC50 relative to closest natural counterpart (human TRESK fragment) ([1]; rbmTRESK vs natural TRESK fragment): almost four times lower
Molecule: Ac-ADEAIPEIVISKPEEP-NH2 [rbmTRESK]

- IC50 [2]: 200 µM
Molecule: Ac-HVSSSPRITITPTQHR-NH2 (designed binder) [rbmRIPOR2_2]

- IC50 [2]: 79 µM
Molecule: Ac-ASVSNPEITVTSAETE-NH2 (designed binder) [rbmRIPOR2]

- fold lower IC50 than the CaN-binding fragment of human TRESK protein (SEQ ID NO: 3) [3]: ~4 fold
- IC50 (read off the curve) [4]: ~10 µM
Molecule: Ac-ADEAIPEIVISKPEEP-NH2 (designed binder) [rbmTRESK]

- IC50 [2]: 60 µM
Molecule: Ac-ADEAIPEITITSAELP-NH2 (designed binder) [rbmTRESK_2]

Second part, the molecule before the results:

Molecule: Ac-AAGAGVGIVITVTEAE-NH2 [rbmAKAP79]
- ability to compete with PVIVIT for CaN binding [1]: successfully competed with PVIVIT binding

Molecule: Ac-ADEAVPQIIISAEELP-NH2 [TRESK, reference compound]
- IC50 [1]: 54 µM

Molecule: Ac-ADGAGVGIVITVTEAE-NH2 [rbmAKAP79_2]
- ability to compete with PVIVIT for CaN binding [1]: successfully competed with PVIVIT binding

Molecule: Ac-AAGAGVGIVITVTEAE-NH2 (designed binder) [rbmAKAP79]
- IC50 [2]: 57 µM

Molecule: Ac-ADGAGVGIVITVTEAE-NH2 (designed binder) [rbmAKAP79_2]
- IC50 [2]: 69 µM
